Consider one molecule from PMC11844729.

In the test the target is F-actin (actin filaments from rabbit skeletal muscle actin) (rabbit), P68135. In words: single-molecule TIRF microscopy. The following applies: remark: other sources report otherwise.

B1: utrophin N-terminal fragment (amino acids 1 to 261)-sfGFP-6xHis, P46939 1-261 (domain or fragment)
chain: MAKYGEHEASPDNGQNEFSDIIKSRSDEHNDVQKKTFTKWINARFSKSGKPPINDMFTDLKDGRKLLDLLEGLTGTSLPKERGSTRVHALNNVNRVLQVLHQNNVELVNIGGTDIVDGNHKLTLGLLWSIILHWQVKDVMKDVMSDLQQTNSEKILLSWVRQTTRPYSQVNVLNFTTSWTDGLAFNAVLHRHKPDLFSWDKVVKMSPIERLEHAFSKAQTYLGIEKLLDPEDVAVQLPDKKSIIMYLTSLFEVLPQQVTID
modifications: here or on the partner: 30% DyLight-650 NHS ester-labelled and optionally 5% biotinylated (EZ-Link NHS-PEG4-biotin) actin
B1 gave a fold landing frequency on F-actin against mN2G^SR of 20 fold.
